Reference: patent US20040161448

How the values were obtained:
[1] = target: T1, soybean Bowman-Birk Inhibitor (UniProt P01055)
T1 sequence: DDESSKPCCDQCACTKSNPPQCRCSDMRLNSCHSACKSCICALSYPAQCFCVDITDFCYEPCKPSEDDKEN

[2] = target: T2, Soybean Kunitz Trypsin Inhibitor (UniProt P01070)
T2 sequence: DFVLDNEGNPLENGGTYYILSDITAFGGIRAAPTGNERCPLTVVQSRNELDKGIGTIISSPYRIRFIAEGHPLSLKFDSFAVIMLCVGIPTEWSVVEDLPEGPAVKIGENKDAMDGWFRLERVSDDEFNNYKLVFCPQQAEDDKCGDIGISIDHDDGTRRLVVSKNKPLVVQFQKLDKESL

soybean agglutinin (SBA) = soybean agglutinin (SBA) (UniProt P05046)
Sequence of soybean agglutinin (SBA) (P05046 33-285): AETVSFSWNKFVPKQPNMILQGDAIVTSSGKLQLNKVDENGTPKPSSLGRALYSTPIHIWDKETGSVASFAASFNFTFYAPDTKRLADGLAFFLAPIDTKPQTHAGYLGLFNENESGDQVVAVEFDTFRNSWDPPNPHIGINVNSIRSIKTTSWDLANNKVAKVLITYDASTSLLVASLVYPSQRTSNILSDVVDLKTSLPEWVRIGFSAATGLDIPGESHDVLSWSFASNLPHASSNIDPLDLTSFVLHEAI

“protease derived from Bacillus sp. NCIMB 40484” gave a % of anti-nutritional factor degraded [1] of 41%, a % of anti-nutritional factor degraded [2] of 100% and a % of anti-nutritional factor degraded (soybean agglutinin (SBA)) of 21%.
